The results in this text go back to US9950027.

Common to all, as to assay: cell-based or functional assay
Assay [1] has as its target human GLP-1 receptor (human) (UniProt P43220).
Assay [2] has as its target human GLP-2 receptor (human) (UniProt O95838).
Assay [3] deals with recombinant human type 2 Formyl peptide receptor (FPR2) (human) (UniProt P25090).

Where a chain is given by its changes, count along the chain named. Side-chain parts run from the residue outwards. [ ]: non-standard residue; d: D form.

human GLP-2 receptor (human), sequence (O95838 whole entry): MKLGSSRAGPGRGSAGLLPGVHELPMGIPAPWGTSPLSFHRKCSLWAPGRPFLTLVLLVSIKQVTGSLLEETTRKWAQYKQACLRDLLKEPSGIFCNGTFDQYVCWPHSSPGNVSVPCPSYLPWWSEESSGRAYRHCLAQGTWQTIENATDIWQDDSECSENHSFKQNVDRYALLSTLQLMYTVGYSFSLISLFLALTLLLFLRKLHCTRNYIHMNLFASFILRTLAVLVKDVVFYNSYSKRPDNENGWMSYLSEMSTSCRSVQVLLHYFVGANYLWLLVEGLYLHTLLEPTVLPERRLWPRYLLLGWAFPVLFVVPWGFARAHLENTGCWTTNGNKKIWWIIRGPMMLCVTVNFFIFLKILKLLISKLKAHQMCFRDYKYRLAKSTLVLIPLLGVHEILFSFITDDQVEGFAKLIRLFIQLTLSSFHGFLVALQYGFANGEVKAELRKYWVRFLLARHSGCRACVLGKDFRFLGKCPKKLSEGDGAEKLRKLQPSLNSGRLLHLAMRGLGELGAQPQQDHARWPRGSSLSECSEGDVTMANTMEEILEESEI
human GLP-1 receptor (human), sequence (P43220 24-463): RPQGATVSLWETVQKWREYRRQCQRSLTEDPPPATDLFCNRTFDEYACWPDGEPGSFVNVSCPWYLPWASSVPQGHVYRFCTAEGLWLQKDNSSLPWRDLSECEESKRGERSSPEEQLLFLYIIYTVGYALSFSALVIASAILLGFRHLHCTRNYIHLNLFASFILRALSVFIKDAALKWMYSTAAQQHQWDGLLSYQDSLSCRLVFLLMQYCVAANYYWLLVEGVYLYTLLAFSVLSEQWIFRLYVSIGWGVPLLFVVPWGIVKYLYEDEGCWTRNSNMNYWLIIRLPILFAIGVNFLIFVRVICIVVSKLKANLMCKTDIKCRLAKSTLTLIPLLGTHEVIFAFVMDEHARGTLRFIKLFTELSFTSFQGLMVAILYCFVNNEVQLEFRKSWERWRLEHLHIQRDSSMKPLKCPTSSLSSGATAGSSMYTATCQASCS
recombinant human type 2 Formyl peptide receptor (FPR2) (human), sequence (P25090 whole entry): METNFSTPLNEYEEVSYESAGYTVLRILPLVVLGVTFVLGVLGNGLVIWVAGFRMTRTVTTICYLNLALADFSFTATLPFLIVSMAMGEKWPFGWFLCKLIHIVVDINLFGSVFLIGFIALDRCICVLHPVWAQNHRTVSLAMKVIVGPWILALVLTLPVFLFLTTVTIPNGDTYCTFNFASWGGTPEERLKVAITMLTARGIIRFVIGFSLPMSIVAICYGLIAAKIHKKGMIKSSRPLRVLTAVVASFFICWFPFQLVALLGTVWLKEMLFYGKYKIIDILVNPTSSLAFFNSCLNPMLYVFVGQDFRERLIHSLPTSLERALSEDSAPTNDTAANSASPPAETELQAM

In assay [1], Ac-HGEGTFTSDVSSYLEGQAAKEFIAWLVKGRGK([Lys-Lys-Ac])-NH2 [Analogue 2 (Example 4, BAP-modified GLP-1 analogue): …] came in with an EC50 (nM), cAMP production (HTRF) of 0.04 nM and a Max efficacy in % of control peptide (cAMP production, HTRF) (% of control peptide) of 102.

B1: Analogue 3 (Example 4, BAP-modified GLP-2 analogue): … (peptide)
peptide: HADGSFSDEMNTILDNLAARDFINWLIQTKITDK
modifications: N-terminal acetyl; Lys-Lys-Ac attached to the epsilon-amino group of the C-terminal Lys34; C-terminal amide
For the molecule B1, in assay [2], the EC50 (nM), cAMP production (HTRF) amounted to 3.4 nM and the Max efficacy in % of control peptide (cAMP production, HTRF) (% of control peptide) came to 101.

B2: Analogue 5 (Example 4, BAP-modified GLP-2 analogue): … (peptide)
peptide: B1 peptide
modifications: N-terminal acetyl; D-Ala at position 2; Lys-Lys-Ac attached to the epsilon-amino group of the C-terminal Lys34; C-terminal amide
Regarding B2, in assay [2], the EC50 (nM), cAMP production (HTRF) stood at 8.9 nM and the Max efficacy in % of control peptide (cAMP production, HTRF) (% of control peptide) worked out at 95.1.

B3: Analogue 4 (Example 4, BAP-modified GLP-2 analogue): … (peptide)
peptide: B1 peptide with A2G
modifications: N-terminal acetyl; Lys-Lys-Ac attached to the epsilon-amino group of the C-terminal Lys34; C-terminal amide
In assay [2], B3 gave an EC50 (nM), cAMP production (HTRF) of 5.9 nM and a Max efficacy in % of control peptide (cAMP production, HTRF) (% of control peptide) of 102.

In the case of Ac-AMVSEFLKQ[dA]WFIENEEQEYVQTVKKK([Lys-Ac])-NH2 [Analogue 6 (Example 4, BAP-modified AnxA1 N-terminal fragment): …], the agonist activity, % of the max response of Trp-Lys-Tyr-Met-Val-Met (SEQ ID NO: 114) in assay [3] amounted to 33%.
